{"source": "the nanobody polyreactivity screen of Harvey et al. (2022)"}
{"assay": "yeast display, Sf9 membrane polyspecificity reagent, FACS + sequencing; frameworks hold sequencing errors", "outline": "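Sorting gates, low and high (top ~1%), were placed on anti-HA fluorescence to track expression and on streptavidin fluorescence to track reagent binding. A clone's polyreactivity label is taken from the gate it came out of. The reagent was 10% biotinylated, detergent-solubilized Sf9 membrane, applied for 1 hour at 4 °C to galactose-induced yeast display cells.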"}
{"sequence": "QVQLVESGGGLVQAGGSLRLSCAASGRIFGDYGMGWYRQAPGKERELVAAITDRGGTTYYADSVKGRFTISRDNAKNTVFLQMNSLKPEDTAVYYCNARQSDIFDYDYWGKGTQVTVSS", "polyreactivity (PSR sort gate)": "low polyreactivity"}
{"sequence": "QVQLVESGGGLVQAGGSLRLSCAASGRIFGENALGWYRQAPGKEREFVAVISISDASTYYADSVKGRFTISRDNAKNTVYLQMISLKPEDTAVYYCAAELTDFLYVASDYWGQGTQVTVSS", "polyreactivity (PSR sort gate)": "low polyreactivity"}
{"sequence": "QVQLVESGGGLVQAGGSLRLSCAASGRIFGENAMGWYRQAPGKERELVAAITWSGTSTYYADSVKGRFTISRDNAKNTVYLQMNSLKPEDTAVDYCAASATLFSSRGKRYYWGQGTQVTVSS", "polyreactivity (PSR sort gate)": "low polyreactivity"}
{"sequence": "QVQLVESGGGLVQAGGSLRLSCAASGRIFGEYAMGWYRQAPGKERELVAAISGGGSTYYADSVKGRFTISRDNAKNTVYLQMNSLKPEETAVYYCAVYSVYHEYDYWGHGTQVTVSS", "polyreactivity (PSR sort gate)": "low polyreactivity"}
{"sequence": "QVQLVESGGGLVQAGGSLRLSCAASGRIFGFYAMGWSRQAPGKERELVPGITGSGDGTYADSVKGRFTISRDNAKNTVYLQMNSLKPEDTAVYYCAADYAVGKHWRYGTYRGHYWGQGTQVTVSS", "polyreactivity (PSR sort gate)": "low polyreactivity"}
{"sequence": "QVQLVESGGGLVQAGGSLRLSCAASGRIFGGNAMGWYRPAPGKERELVAAISKRGGSTYYADSVKGRFTISRDNAKNTVYLQMNSLKPEDSAVYYCAATAYADQGLDYGYWGQGTQVTVSS", "polyreactivity (PSR sort gate)": "high polyreactivity"}
{"sequence": "QVQLVESGGGLVQAGGSLRLSCAASGRIFGGNAMGWYRQAPGKERELVAAISRNGGRTYYADSVKGRFTISRDNEKNTVYLQKNSLKPEDTAFYYCNAGYKEPHYYYWGQGTQVTVSS", "polyreactivity (PSR sort gate)": "high polyreactivity"}
{"sequence": "QVQLVESGGGLVQAGGSLRLSCAASGRIFGGNAMGWYRQAPGKERELVAAITTRGGSTYADSVKGRFTISRDNAKNTVYLQMNSLKPEDTAVYYCNKRYVIRRRGYDYWGQGTQVTVSS", "polyreactivity (PSR sort gate)": "low polyreactivity"}
{"sequence": "QVQLVESGGGLVQAGGSLRLSCAASGRIFGGNTMGWYRQAPGKERELVAAITSGGSTTYADSVKGRFTISRDNAKNTVYLHMNSLKPEDSEVYYCAARYVYPHQWTPYIRPYDYWGQGTQVTVSS", "polyreactivity (PSR sort gate)": "low polyreactivity"}
{"sequence": "QVQLVESGGGLVQAGGSLRLSCAASGRIFGGNVMGWNRQATWKERELVAFITRGTRTNYADSVKGRFTISRDNAKNTVYLQMNSLKPEDNAVFYCAADSRNSRQHTSYNSLNYWGQGTQVTVSS", "polyreactivity (PSR sort gate)": "high polyreactivity"}
{"sequence": "QVQLVESGGGLVQAGGSLRLSCAASGRIFGGYAMGWYRQAPGKERELVAAISSRGGSTYYADSVKGRFTISRDNAKNTVYLQMNSLNPEDTAVYYCARTKYGRYRYGEYDYWGQGTQVTVSS", "polyreactivity (PSR sort gate)": "high polyreactivity"}
{"sequence": "QVQLVESGGGLVQAGGSLRLSCAASGRIFGGYAMGWYRQAPGKERELVAAISWRGGTTYYADSVKGRFTISRDNAKNTVYLQMNSLKQEDTAVYYCNADVVRYRHWHRGDYWGQGTQVTVSS", "polyreactivity (PSR sort gate)": "low polyreactivity"}
{"sequence": "QVQLVESGGGLVQAGGSLRLSCAASGRIFGGYAMGWYRQAPGKERELVAAITSAGGTNYADSVKGRFTISRDNAKNTVYLQMNSLKPEDTAVYYCAALRDRDITVYYDTGRMYYWGQGTQVTVSS", "polyreactivity (PSR sort gate)": "low polyreactivity"}
{"sequence": "QVQLVESGGGLVQAGGSLRLSCAASGRIFGGYAMGWYRQAPGKERELVATITANGGRTRYADSVKGRFTISRDNAKNTVYLQMNSLKPEDTAVYYCARVYYSSSGYGYWGQGTQVTVSS", "polyreactivity (PSR sort gate)": "high polyreactivity"}
{"sequence": "QVQLVESGGGLVQAGGSLRLSCAASGRIFGGYAMGWYRQAPGKERELVAVITDGGSTNYADSVKGRFTISRDNAKNTVYLQMNSLKPEDTAVYYCAADDRIYPRGYDKMDYWGQGTQVTVSS", "polyreactivity (PSR sort gate)": "low polyreactivity"}
{"sequence": "QVQLVESGGGLVQAGGSLRLSCAASGRIFGGYTMGSYRQAPGKERELVAAITRSDGSTTYADSVKGRFTISRDNAKNTVSLQMNSMKPEDTAVYYCAAPRASGYYWGQCTQVTVSS", "polyreactivity (PSR sort gate)": "high polyreactivity"}
{"sequence": "QVQLVESGGGLVQAGGSLRLSCAASGRIFGGYTMGWYRQAPGKEREFVATISRSSGSTYYADSVKGRFTISRDNAKNTVYLQMNSLKPEDTAVYYCAAVYLYATGYDYWGQGTQVTVSS", "polyreactivity (PSR sort gate)": "high polyreactivity"}
{"sequence": "QVQLVESGGGLVQAGGSLRLSCAASGRIFGGYTMGWYRQAPGNERELVAAINSGGSTYYADSVKGRFTISRDNAKITVYLQMNSLKPEDTAVYYCAKVRSYFGKYGYGYWGQGTQVTVSS", "polyreactivity (PSR sort gate)": "high polyreactivity"}
{"sequence": "QVQLVESGGGLVQAGGSLRLSCAASGRIFGGYVMGWYRQAPGKERELVAAISRRGGSTYYADSVKGRFTISRDNAKNTVYLQMNSLKPEDTAVYYCNVASFSYSYKFDYWGQGTQVTVSS", "polyreactivity (PSR sort gate)": "high polyreactivity"}
{"sequence": "QVQLVESGGGLVQAGGSLRLSCAASGRIFGHYAMGWYRQAPGKETELVASISWRGGRTYYADSVKGRFTISRDNAKNTVYLQMNSLKPEDTAVYYCAARVNYKPYADYYYWGQGTQVTVSS", "polyreactivity (PSR sort gate)": "high polyreactivity"}
{"sequence": "QVQLVESGGGLVQAGGSLRLSCAASGRIFGINARGWYRPAPGKERELVAAINWSGGSTYYADSVKGRFTISRDNAKNTVYLHMNSLKPEDTAVYYCAADFYRRYYRYGYWGQGTQVTVSS", "polyreactivity (PSR sort gate)": "high polyreactivity"}
{"sequence": "QVQLVESGGGLVQAGGSLRLSCAASGRIFGINVMGWYRQAPGKERELVARITGRGGRTYYADSVKGRFTISRDNAKNTVYLQMNSLKPEDTAVYYCAADARYEAYDYWGQGTQVTVSS", "polyreactivity (PSR sort gate)": "high polyreactivity"}
{"sequence": "QVQLVESGGGLVQAGGSLRLSCAASGRIFGIYAMGWYRQAPGKERELVASITGSSGSTNYADSVKGRFTISRDNAKNTVYLQMNSLKPEDTAVYYCAADIPSYYWWRAYDYWGQGTQVTVSS", "polyreactivity (PSR sort gate)": "low polyreactivity"}
{"sequence": "QVQLVESGGGLVQAGGSLRLSCAASGRIFGKNAMGWYRQAPGKERELVAAIRGNGGSTYYADSVKGRFTISRDNAKNTVYLQFNSLKPEDTAVYYCAARASAYFGRYYLYDYWGQGTQVTVSS", "polyreactivity (PSR sort gate)": "high polyreactivity"}
{"sequence": "QVQLVESGGGLVQAGGSLRLSCAASGRIFGKYAMGWYRQAPGKERELVAAIRITGGSTYYADSVKGRFTISRDNAKNTVYLEMNSLKPEDTAVYYCAAVYLKTYYWGQGTQVTVSS", "polyreactivity (PSR sort gate)": "high polyreactivity"}
{"sequence": "QVQLVESGGGLVQAGGSLRLSCAASGRIFGLYAMGWYRQAPGKERELVAAITRGGRTNYADSVKGRFTISRDNAKNTVYLQMNSLKPEDTAVYYCAADYRYTRGRRDYWGQGTQVTVSS", "polyreactivity (PSR sort gate)": "high polyreactivity"}
{"sequence": "QVQLVESGGGLVQAGGSLRLSCAASGRIFGLYAMGWYRQATGKERELVAAISSSGGRTYYADSVKGRFTISRDNAKNTVYLQMNSLKPEDTAVYYCAAVYYYRRDGNGYWGQGTQVTVSS", "polyreactivity (PSR sort gate)": "high polyreactivity"}
{"sequence": "QVQLVESGGGLVQAGGSLRLSCAASGRIFGLYAMGWYSQAPGKERELVAAISRGGGSTYYSDSVMGRFTISRDNAKNTVYLQMKSLKPEVTAVYYCATGLGYFSRLDYWGQGTQVTVSS", "polyreactivity (PSR sort gate)": "low polyreactivity"}
{"sequence": "QVQLVESGGGLVQAGGSLRLSCAASGRIFGLYTMGWYRQAPGKERELVAAITSRGGRTYYADSVKGRFTLSRDNAKNSVYLQMNSLKPEDTAVYYCAAGGYWSLKYDYWGQGTQVTVSS", "polyreactivity (PSR sort gate)": "high polyreactivity"}
{"sequence": "QVQLVESGGGLVQAGGSLRLSCAASGRIFGNNVMGWYRQAPGKERELVASINYSGRTYYADSVKGRFTISRDNAKNTVYLQMNSLKPEDTAVYYCAARRYAWFYPYVTYDYWGQGTQVNVSS", "polyreactivity (PSR sort gate)": "high polyreactivity"}
